Data from paper PMC3219604.

System: OrfAB-GFP GMF101 V179L ((insertion sequence IS2))
Assay: EMSA
Details: panel (50- or 87-mer) not stated in material; 20 mM Tris-Cl pH 8.0, 1 mM EDTA, 5 ug/mL calf thymus DNA, 10 nM DNA, 0.11-0.13 uM protein, 30 min at 20 C; gels at 4 C

For “GGATCCTTAAGTGATAACAGATGTCTGGAAATATAGGGGCAAATCCAGCG (double strand) [IRR 50-mer]”, which binding signal (binding score (0-5)) is on record?
Its binding signal (binding score (0-5)) is 3.
